Data on 3 proteins can be found in patent publication US20090170194A1 (GOVERNORS OF THE UNIVERSITY OF ALBERTA, published 2009).

Series [1] deals with the molecule itself. In words: gel filtration chromatography with dTomato (dimer) and mCherry (monomer) as size standards (self-association). From the text: (§1) FIG. 4: Characterization of mTFP1 by Gel Filtration Chromatography. Gel filtration chromatography elution profile with detection at either 450 nm or 550 nm. The upper profile is a co-injection of dTFP0.2 and mCherry (Shaner, 2004) (a red monomer), the middle profile is dTomato (Shaner, 2004) (a red dimer) and mTFP1, and the lower profile is mTFP1 alone. The small 450 nm peak at the dimer elution volume is due to the weak absorbance of dTomato at this wavelength.
(§2) The non-oligomeric structure of mTFP variants was determined by gel filtration chromatography on a HiLoad 16/60 Superdex 75 pg gel filtration column. Samples of the dimeric dTomato and the monomeric mCherry proteins (Shaner, 2004) were expressed and purified as described above and used as size standards. The AKTA basic liquid chromatography system (GE Healthcare) can monitor multiple wavelengths simultaneously. Purified TFP variants were mixed with either dTomato or mcherry and their respective elution profiles monitored separately at 450 nm and 550 nm, respectively.
Background: SEC sorts molecules by how far they enter the pores of the column.

Series [2] concerns the molecule itself. The series can be described thus: self-association (homodimer); gel filtration chromatography (FIG. 4).
Description: as §1, §2

Series [3] deals with the molecule itself. The series can be described thus: gel filtration chromatography (self-association). The protocol: as §2

B1: mTFP1 (other)
chain: MVSKGEETTMGVIKPDMKIKLKMEGNVNGHAFVIEGEGEGKPYDGTNTINLEVKEGAPLPFSYDILTTAFAYGNRAFTKYPDDIPNYFKQSFPEGYSWERTMTFEDKGIVKVKSDISMEEDSFIYEIHLKGENFPPNGPVMQKKTTGWDASTERMYVRDGVLKGDVKHKLLLEGGGHHRVDFKTIYRAKKAVKLPDYHFVDHRIEILNHDKDYNKVTVYESAVARNSTDGMDELYK
notes: Engineered monomeric teal fluorescent protein derived from Clavularia cFP484; Expressed from pBAD/HisB and purified on Ni-NTA; also called mTFP1.0
As for B1, the binding result in series [1] is “no binding”.

B2: dTFP0.2 (other)
chain: MVSKGEETTMGVIKPDMKIKLKMEGNVNGHAFVIEGEGEGKPYDGTNTVNLEVKEGAPLPFSYDILSNAFQYGNRAFTKYPDDIANYFKQSFPEGYSWERTMTFEDKGIVKVKSDISMEEDSFIYEIRLKGKNFPPNGPVMQKKTLKWEPSTEILYVRDGVLVGDISHSLLLEGGGHYRCDFKTIYKAKKVVKLPDYHFVDHRIEILNHDKDYNKVTLYENAVARYSLLPPQAGMDELYK
notes: dTFP0.1 with D81N and S226P; Vector His tag probably present; also called dTFP0.20
Regarding B2, the binding result in series [2] is “binds”.

B3: mTFP0.3 (other)
chain: MVSKGEETTMGVIKPDMKIKLKMEGNVNGHAFVIEGEGEGKPYDGTNTVNLEVKEGAPLPFSYDILSNAFQYGNRAFTKYPDDIANYFKQSFPEGYSWERTMTFEDKGIVKVKSDISMEEDSFIYEIRLKGKNFPPNGPVMQKKTLKWEPSTEILYVRDGVLVGDIKHKLLLEGGGHYRCDFKTIYKAKKVVKLPDYHFVDHRIEILNHDKDYNKVTLYENAVARYSLLPPQAGMDELYK
notes: dTFP0.2 with S162K and S164K; reported as a monomer; Substitution positions follow the DsRed-consistent numbering; Vector His tag probably present
For B3, in series [3], the binding result was “no binding”.
